Values quoted from earlier work in PMC5325457.

Molecular target: Mms2 (Homo sapiens) (UniProt Q15819)
Chain of UniProt Q15819 (Q15819 2-145): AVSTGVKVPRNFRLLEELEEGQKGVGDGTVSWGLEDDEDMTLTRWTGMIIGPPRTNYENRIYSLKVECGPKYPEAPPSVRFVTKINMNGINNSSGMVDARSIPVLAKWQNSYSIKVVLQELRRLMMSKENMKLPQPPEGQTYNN

Kd: 49 nM
Substance: Ubc13 (from UniProt P61088)
